In assay [1] the target is 人成纤维细胞生长因子2(FGF2) (human) (UniProt P09038). The assay is described as follows: sandwich chemiluminescence immunoassay, AntiVEGF_C capture and AntiVEGF_N-HRP detection, FGF2 at 20μg/ml; apparent VEGF concentration.
Assay [2] has the same target. Description: sandwich chemiluminescence immunoassay, AntiVEGF_C capture and AntiVEGF_N-HRP detection, FGF2 at 20μg/ml (specificity test).
Assay [3] has as its target 表皮生长因子(EGF) (UniProt P01133). Description: sandwich chemiluminescence immunoassay, AntiVEGF_C capture and AntiVEGF_N-HRP detection, EGF at 30ng/ml; apparent VEGF concentration.
UniProt P01133, sequence (P01133 971-1023 limits assumed): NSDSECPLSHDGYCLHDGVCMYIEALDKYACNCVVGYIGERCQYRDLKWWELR
Assay [4] has as its target 表皮生长因子(EGF) (UniProt P01133). Description: sandwich chemiluminescence immunoassay, AntiVEGF_C capture and AntiVEGF_N-HRP detection, EGF at 30ng/ml (specificity test).

UniProt P09038, sequence (P09038 143-288 limits assumed): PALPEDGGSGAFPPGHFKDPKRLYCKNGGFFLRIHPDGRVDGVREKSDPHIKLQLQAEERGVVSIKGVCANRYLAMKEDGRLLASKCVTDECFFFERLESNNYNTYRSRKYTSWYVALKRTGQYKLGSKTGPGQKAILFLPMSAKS

B1: 单克隆抗体AntiVEGF_C (antibody, V domains shown)
VH: EVQLVESGGGLVQPGGSRKLSCAASGFTFSSFGMHWVRQAPEKGLEWVAFINSDSSAFYYADTVQDRFTISRDNPKNTLFLQMTSLRSEDTAMYYCARAGNHYYGGAYWGQGTLVTVSA
VL: QIVLSQSPAILSASPGEKVTMTCRASSSVSYMHWYQQRPGSSPKPWIYDTSNLASGVPVRFSGSGSGTSYSLTISRVEVEDAATYYCQQWSRHPPITFGSGTKLEIK
As for B1, the 浓度值 (检测表观值) in assay [1] was determined as 11.3 pg/mL; with 表皮生长因子(EGF) [3], 6.57 pg/mL. Also, the figures for the 发光值 (in assay [2]; in the assay with 表皮生长因子(EGF) [4]) were 14900 RLU and 8770 RLU, respectively.

(Values after patent CN113150157A.)
